We go through 1 molecule from patent US20100081792A1 (published 2010).

For one experiment, the target named is T1, mouse VEGF (mouse, UniProt Q00731-2 27-190, limits assumed).
T1 sequence (looked up): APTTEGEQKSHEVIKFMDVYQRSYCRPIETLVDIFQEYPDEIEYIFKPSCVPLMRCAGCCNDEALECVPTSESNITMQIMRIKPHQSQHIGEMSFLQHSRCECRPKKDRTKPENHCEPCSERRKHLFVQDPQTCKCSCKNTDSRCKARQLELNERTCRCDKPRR
The experiment can be described thus: receptor binding assay, dAb cross-linked by anti-Myc tag antibody.

The next experiment addresses T2, human VEGF (human, UniProt P15692-4 27-191).
T2 construct: also called VEGF165
The experiment is described as above.

B1: TAR15-26 (other)
VH: EVQLLESGGGLVQPGGSLRLSCAASGFTFGAYPMMWVRQAPGKGLEWVSEISPSGSYTYYADSVKGRFTISRDNSKNTLYLQMNSLRAEDTAVYYCAKDPRKFDYWGQGTLVTVSS
notes: VH dAb; carries a Myc tag in the cross-linked assay
On to B1, for which the IC50 (commonly the concentration needed to halve the response being measured) turned out to be 10 nM with mouse VEGF and 3 nM with human VEGF.
